This passage reports NGS count and Population results from patent publication EP4613859A1, “TLR SIGNALING INHIBITORY PEPTIDE AND COMPOSITION INCLUDING SAME FOR PREVENTION OR TREATMENT OF INFLAMMATORY DISEASES” (Korea Institute of Science and Technology, priority 2022, dated 2025).

Assay [1] addresses human MAL (human) (UniProt P58753). The experiment in a line: P8 phage display panning on plate-immobilised MAL, after round 4, NGS.
Assay [2] has the same target. The assay can be described thus: P3 phage display panning on plate-immobilised MAL, after round 4, NGS.
Assay [3] deals with human MyD88 (human) (UniProt Q99836). The assay can be described thus: P3 phage display panning on plate-immobilised MyD88, after round 4, NGS.
UniProt Q99836, sequence (Q99836 155-296 limits assumed): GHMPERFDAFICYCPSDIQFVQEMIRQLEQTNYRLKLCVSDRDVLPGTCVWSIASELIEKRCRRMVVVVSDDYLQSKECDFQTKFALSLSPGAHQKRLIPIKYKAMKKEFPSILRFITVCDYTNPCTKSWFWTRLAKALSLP
For assay [4] the target is unchanged. The experiment in a line: P8 phage display panning on plate-immobilised MyD88, after round 4, NGS.

UniProt P58753, sequence (P58753 79-221 limits assumed): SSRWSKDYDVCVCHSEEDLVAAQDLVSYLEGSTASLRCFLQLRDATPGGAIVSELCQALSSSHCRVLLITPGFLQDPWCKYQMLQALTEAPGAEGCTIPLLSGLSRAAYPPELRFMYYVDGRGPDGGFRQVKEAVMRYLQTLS

Take WFMMKFRTVLDHVNDV: in the assay with human MAL (human) [1], the NGS count was 2270 count and the Population was found to be 0.7%.

Turning to FTLAVHVRNWLVGGFI, in the assay with human MAL (human) [1], the NGS count is 520 count and the Population came out at 0.19%.

Turning to YLISYIFNELARAGFS, in the assay with human MAL (human) [1], the NGS count is 295 count and the Population is 0.09%.

For the molecule AFFWAQLKSVLGNPTM, in the assay with human MAL (human) [1], the NGS count was 28800 count and the Population was 8.9%.

On to NQWRNALTAAANLSGW, for which the results for the NGS count with human MAL (human) [2], in the assay with human MyD88 (human) [3] and in the assay with human MAL (human) [1] were 25800 count, 28700 count and 848 count, respectively. Besides, the Population with human MAL (human) [2] stood at 9.71%; with human MyD88 (human) [3], 8.35%; in the assay with human MAL (human) [1], 0.26%.

For the molecule YLKWGYPWFWDRLRFA, the NGS count with human MAL (human) [2] came out at 1680 count; with human MyD88 (human) [3], 7320 count; in the assay with human MAL (human) [1] it was 517 count. Besides, the Population with human MAL (human) [2] was 0.63%; with human MyD88 (human) [3], 2.13%; in the assay with human MAL (human) [1] it was 0.19%.

For the molecule DFLNWFIALKSTVIEN, in the assay with human MAL (human) [1], the NGS count came to 867 count and the Population was determined as 0.27%.

On to SLLYDHLRWLGIRAFL, for which, in the assay with human MAL (human) [1], the NGS count came out at 2580 count and the Population was found to be 0.8%.

On to RNNFIGHLYQALYRIG, for which, in the assay with human MAL (human) [1], the NGS count came out at 3120 count and the Population turned out to be 0.96%.

In the assay with human MAL (human) [1], KLIQGWFLYRLLKIEQ returned an NGS count of 2070 count and a Population of 0.64%.

In the assay with human MAL (human) [1], WFLFTVRSAIYAMSPA showed an NGS count of 3160 count and a Population of 0.97%.

In the case of KFIWDIINAISSQIRV, in the assay with human MAL (human) [1], the NGS count is 146 count and the Population is 0.05%.

In the assay with human MAL (human) [1], RNFVAYLFQALANKGI gave an NGS count of 28000 count and a Population of 8.63%.

Consider DTKLKKGESIAPELLR, for which, in the assay with human MyD88 (human) [3], the NGS count came out at 2460 count and the Population came out at 0.72%. Further, in the assay with human MAL (human) [1], the NGS count was 5620 count and the Population came to 1.74%.

With WFLTAFRMAMDQVADT, in the assay with human MAL (human) [1], the NGS count worked out at 353 count and the Population stood at 0.11%.

In the assay with human MAL (human) [1], QLIQQWIELHLHQLHL had an NGS count of 9390 count and a Population of 2.9%. In the assay with human MyD88 (human) [4], this molecule had an NGS count of 1600 count and a Population of 0.62%.

In the assay with human MAL (human) [1], AWALHQLQQIINWHET showed an NGS count of 232 count and a Population of 0.07%.

WALQELVKILQAKIFL: in the assay with human MAL (human) [1], the NGS count came to 227 count and the Population amounted to 0.07%.

In the assay with human MAL (human) [1], AFLYTFLINLTHPTNF yielded an NGS count of 51100 count and a Population of 18.9%.
